Measurements taken from paper PMC5721652, “Nanobodies targeting conserved epitopes on the major outer membrane protein of Campylobacter as potential tools for control of Campylobacter colonization” (Veterinary Research, 2017).

Legend:
[1] = biological target: T1, major outer membrane protein (MOMP) of Campylobacter jejuni KC40 (Campylobacter jejuni KC40 (stand-in: …, UniProt P80672, strain)); assay: ELISA; purified MOMP coated at 1 µg/mL; His-tagged nanobody at 50 µg/mL, or tenfold serial dilutions of His-tagged Nb84 (saturation binding); detected with anti-Histidine tag antibody; conditions: both partners purified
T1 construct: major outer membrane protein (MOMP, porA) of C. jejuni strain KC40; the printed entry P80672 is that of strain NCTC 11168, to which the peptides of the pull-down matched; The legends call the purified protein a MOMP monomer; the introduction describes MOMP as a trimeric porin; Kept in 0.6% octyl-POE after purification; also called purified MOMP monomer; native MOMP; source: purified from C. …

[2] = biological target: T1, major outer membrane protein (MOMP) of …; assay: ELISA; competition: MOMP coated at 1 µg/mL; serial dilutions of strep-tagged nanobody and a constant 5 x 10^-2 µg/mL of His-tagged Nb84 added simultaneously; bound His-tagged Nb84 detected with anti-Histidine tag antibody; conditions: both partners purified
[3] = biological target: T1, major outer membrane protein (MOMP) of …; assay: far-Western, overlay or dot blot; purified MOMP run on a non-denaturing gel, transferred to PVDF, incubated with 5 µg/mL His-tagged nanobody for 1 h at 4 °C, detected with anti-Histidine tag antibody; conditions: both partners purified
[4] = biological target: T1, major outer membrane protein (MOMP) of …; assay: pull-down; His-tagged nanobody (20 µL of 1.0 mg/mL) mixed with 500 µL outer membrane proteins of C. jejuni KC40 (1.2 mg/mL), 2 h at 4 °C, captured overnight at 4 °C on Co2+-coated Dynabeads; eluted band cut from a silver-stained gel and identified by LC-MS/MS; conditions: one partner purified
[5] = biological target: T1, major outer membrane protein (MOMP) of …; assay: MST; saturation: Dylight 650 labelled nanobody constant at 32 nM, twofold serial dilutions of MOMP from 0.3 nM to 5.0 µM; 20 mM sodium phosphate pH 7.6, 150 mM NaCl, 0.6% octyl-POE; conditions: both partners purified

B1: Nb32, His-tagged (VHH)
VHH: QVQLQESGGGLVQAGDSLRLSCAASGGTFSNYVLGWFRQAPGKEREFVAAIRWSGERTYYADSVKGRFTISSDNAKYRQVTVYLEMNSLKPEDTAVYYCAARAPNYYSDSQPPVTLSEYKVWGQGTQVTVSS
notes: One of the six nanobodies with less broad specificity; also called anti-Campylobacter nanobody; not shown: His-tag, C-terminal, kept
[1]
  binding result: binds

B2: Nb32, strep-tagged (VHH)
VHH: QVQLQESGGGLVQAGDSLRLSCAASGGTFSNYVLGWFRQAPGKEREFVAAIRWSGERTYYADSVKGRFTISSDNAKYRQVTVYLEMNSLKPEDTAVYYCAARAPNYYSDSQPPVTLSEYKVWGQGTQVTVSS
notes: as the VHH of m9; also called strep-tagged Nb32; source: E. coli, purified (StrepTrap HP); not shown: strep-tag, C-terminal, kept
[2]
  binding result: binds

B3: Nb49, strep-tagged (VHH)
VHH: QVQLQESGGGLVQPGWSLRLSCAASSIFEINAMGWYRQPPGKQRERVATITDGFGTNYADSVKGRFTISRDNAKNTVYLQMNSLRPEDTAVYYCSAQRTVPYKMTYWGQGTQVTVSS
notes: as the VHH of m6; also called strep-tagged Nb49; source: E. coli, purified (StrepTrap HP); not shown: strep-tag, C-terminal, kept
[2]
  binding result: binds

B4: Nb49, His-tagged (VHH)
VHH: QVQLQESGGGLVQPGWSLRLSCAASSIFEINAMGWYRQPPGKQRERVATITDGFGTNYADSVKGRFTISRDNAKNTVYLQMNSLRPEDTAVYYCSAQRTVPYKMTYWGQGTQVTVSS
notes: Cloned in pHen6C; one of the six nanobodies with broad specificity; also called anti-Campylobacter nanobody; not shown: His-tag, C-terminal, kept
[3]
  binding result: binds

B5: Nb5, His-tagged (VHH)
VHH: QVQLQESGGGLVQAGGSLRLSCAASGTIISLNSMGWYRQAPGKQRELVAALTSGGTTNYADSVKGRFTISRVNAKNTVYLQMNSLKPEDTAVYYCNAKLITTAQGMVLASWGQGTQVTVSS
notes: as for B4
[4]
  binding result: binds

B6: Nb5, strep-tagged (VHH)
VHH: QVQLQESGGGLVQAGGSLRLSCAASGTIISLNSMGWYRQAPGKQRELVAALTSGGTTNYADSVKGRFTISRVNAKNTVYLQMNSLKPEDTAVYYCNAKLITTAQGMVLASWGQGTQVTVSS
notes: as the VHH of m2; the printed oligo encodes the tag directly after the end of the nanobody; also called strep-tagged Nb5; source: E. coli, purified (StrepTrap HP); not shown: strep-tag, C-terminal, kept
[2]
  binding result: binds

B7: Nb84, fluorescently labelled (VHH)
VHH: QVQLQESGGGLVQAGGSLRLSCKASGTIISINNMGWYRRSPGKERDMVARIFSSGTINYTDSVKGRFTISRDNAKNTVYLEMNSLKPEDTAIYYCNARLTTTAMGTIPNSWGQGTQVTVSS
notes: as the VHH of m7; probably the C-terminally His-tagged one; also called fluorescently labelled Nb84; labelled Nb84; source: E. coli, purified; labelled with Dylight 650 NHS Ester
[5]
  Kd: 422 ± 159 nM

B8: Nb63, His-tagged (VHH)
VHH: QVQLQESGGGLVQPGGSLRLSCVASGSTFAINVMGWYRRAPGKQRELVATVTSGSTTYSRVRSSDTTYADSVKGRFTISRDNAKNMVYLQMNSLKPEDTAVYYCNARTRNTIATSDGMDYWGKGTQVTVSS
notes: One of the six nanobodies with less broad specificity; its name is printed only in the legend of Additional file 5; also called anti-Campylobacter nanobody; not shown: His-tag, C-terminal, kept
[1]
  binding result: binds

B9: Nb63, strep-tagged (VHH)
VHH: QVQLQESGGGLVQPGGSLRLSCVASGSTFAINVMGWYRRAPGKQRELVATVTSGSTTYSRVRSSDTTYADSVKGRFTISRDNAKNMVYLQMNSLKPEDTAVYYCNARTRNTIATSDGMDYWGKGTQVTVSS
notes: as the VHH of m13; also called strep-tagged Nb63; source: E. coli, purified (StrepTrap HP); not shown: strep-tag, C-terminal, kept
[2]
  binding result: binds

B10: Nb45, His-tagged (VHH)
VHH: QVQLQESGGGLVQAGGSLRLACVASSTIFSINNMAWYRQAPGKQRELVARITAGGNTNYADSVKGRFTISKDKGKNTVRLQMNSLKPEDTGVYYCKCGGCGTPYSLSEDYWGQGTQVTVSS
notes: as for B1
[1]
  binding result: binds

B11: Nb45, strep-tagged (VHH)
VHH: QVQLQESGGGLVQAGGSLRLACVASSTIFSINNMAWYRQAPGKQRELVARITAGGNTNYADSVKGRFTISKDKGKNTVRLQMNSLKPEDTGVYYCKCGGCGTPYSLSEDYWGQGTQVTVSS
notes: as the VHH of m11; also called strep-tagged Nb45; source: E. coli, purified (StrepTrap HP); not shown: strep-tag, C-terminal, kept
[2]
  binding result: binds

B12: Nb15, His-tagged (VHH)
VHH: QVQLQESGGGLVQPGGSLRLSCAASGRTFRSYDMGWFRQAPGKEREFVAASAWSAGRTIYKNSVKGRFTISRDNTKDTMYLQMNDLKPEDTAVYFCAADRNPPPIYNEFYYYRASAYDYWGQGTQVTVSS
notes: as for B8
[1]
  binding result: binds

B13: Nb15, strep-tagged (VHH)
VHH: QVQLQESGGGLVQPGGSLRLSCAASGRTFRSYDMGWFRQAPGKEREFVAASAWSAGRTIYKNSVKGRFTISRDNTKDTMYLQMNDLKPEDTAVYFCAADRNPPPIYNEFYYYRASAYDYWGQGTQVTVSS
notes: as the VHH of m8; also called strep-tagged Nb15; source: E. coli, purified (StrepTrap HP); not shown: strep-tag, C-terminal, kept
[2]
  binding result: binds

B14: Nb34, His-tagged (VHH)
VHH: QVQLQESGGGLVQAGGSLRLSCAASGRTSSSYAMGWFRQAPGKEREFVTAISWNGSKAYYSDSVKGRFTISRDNAKNTVYLQMNSLKPEDTAVYYCAQGAYRVVADPGEYDYWGQGTQVTVSS
notes: as for B1
[1]
  binding result: binds

B15: Nb34, strep-tagged (VHH)
VHH: QVQLQESGGGLVQAGGSLRLSCAASGRTSSSYAMGWFRQAPGKEREFVTAISWNGSKAYYSDSVKGRFTISRDNAKNTVYLQMNSLKPEDTAVYYCAQGAYRVVADPGEYDYWGQGTQVTVSS
notes: as the VHH of m10; also called strep-tagged Nb34; source: E. coli, purified (StrepTrap HP); not shown: strep-tag, C-terminal, kept
[2]
  binding result: binds

B16: Nb24, strep-tagged (VHH)
VHH: QVQLQESGGGLVQPGGSLRLSCAASGRTFSRFSDNYVMGWFRQAPGKEREVVGAIRWSVASTYYADFVKGRFTISRDSAMNTMYLQMNNLKPEDTAVYYCATKFSGPINGGQTSYNYWGQGTQVTVSS
notes: as the VHH of m5; also called strep-tagged Nb24; source: E. coli, purified (StrepTrap HP); not shown: strep-tag, C-terminal, kept
[2]
  binding result: binds

B17: Nb24, His-tagged (VHH)
VHH: QVQLQESGGGLVQPGGSLRLSCAASGRTFSRFSDNYVMGWFRQAPGKEREVVGAIRWSVASTYYADFVKGRFTISRDSAMNTMYLQMNNLKPEDTAVYYCATKFSGPINGGQTSYNYWGQGTQVTVSS
notes: as for B4
[3]
  binding result: binds

B18: Nb23, strep-tagged (VHH)
VHH: QVQLQESGGGLVQPGGSLRLSCAASGTIDNFNGMGWYRQAPGKQREWLARITMNGRTIYAESVEGRFTISRDKVKNTLALQMNSLKPEDTAVYYCNARGVLTPRGIHDYWGQGTQVTVSS
notes: as the VHH of m4; also called strep-tagged Nb23; source: E. coli, purified (StrepTrap HP); not shown: strep-tag, C-terminal, kept
[2]
  binding result: binds

B19: Nb23, His-tagged (VHH)
VHH: QVQLQESGGGLVQPGGSLRLSCAASGTIDNFNGMGWYRQAPGKQREWLARITMNGRTIYAESVEGRFTISRDKVKNTLALQMNSLKPEDTAVYYCNARGVLTPRGIHDYWGQGTQVTVSS
notes: as for B4
[3]
  binding result: binds

B20: Nb22, fluorescently labelled (VHH)
VHH: QVQLQESGGGLVQPGGSLRLSCAVSRTIFNFNNMGWYRQPPGKPRELVARITMNGRTDYADPVKGRFTISRDSAKNTLALQMNDLKGDDTAVYYCAARGAVRTGNLMPTDYWGQGTQVTVSS
notes: as the VHH of m3; probably the C-terminally His-tagged one; also called fluorescently labelled Nb22; source: E. coli, purified; labelled with Dylight 650 NHS Ester
[5]
  Kd: 118 ± 48 nM

B21: Nb48, His-tagged (VHH)
VHH: QVQLQESGGGSVQAGESLRLACAASGSILSINIMRWYRQAPGKQRELVATIGRSGNTDLADFAKGRFTGSRDNGKNTVYLQMNNLKPEDTAVYYCNALLTTLSAQTGVYWGQGTQVTVSS
notes: as for B8
[1]
  binding result: binds

B22: Nb48, strep-tagged (VHH)
VHH: QVQLQESGGGSVQAGESLRLACAASGSILSINIMRWYRQAPGKQRELVATIGRSGNTDLADFAKGRFTGSRDNGKNTVYLQMNNLKPEDTAVYYCNALLTTLSAQTGVYWGQGTQVTVSS
notes: as the VHH of m12; also called strep-tagged Nb48; source: E. coli, purified (StrepTrap HP); not shown: strep-tag, C-terminal, kept
[2]
  binding result: binds
